According to the RNAGym collection of RNA variant scans (doi:10.7554/elife.80360):

B1: Twister Ribozyme (parent)
chain: AACACUGCCAAUGCCGGUCCCAAGCCCGGAUAAAAGUGGAGGGGGCGG

Variants of: B1
Test: self-cleavage, relative activity (ratio to wild type); higher = more cleavage; co-transcriptional

Row | Variant | self-cleavage
1 | A11U G13C | 0.592
2 | U12C C15U | 1.09
3 | U12A A34C | 0.36
4 | U12A A35U | 1.06
5 | U12C G43C | 0.145
6 | U12C A35G | 0.837
7 | U12C A35U | 0.91
8 | U12A C25G | 0.423
9 | A10U U37C | 0.667
10 | A10U U37A | 0.86
11 | A10U G24A | 0.0831
12 | A10U G24C | 0.0965
13 | U12A A40C | 0.291
14 | A11C G38A | 0.768
15 | A11C G38C | 0.731
16 | A11C G38U | 1.03
17 | A10U G44A | 0.924
18 | U12A C26A | 0.763
19 | U12A C26U | 0.563
20 | U12A A22C | 1.08
21 | U12C C27U | 0.951
22 | A11G C14A | 0.941
23 | A11G C14G | 0.133
24 | A11G C14U | 0.943

Row | Variant | self-cleavage
25 | A11G G36U | 0.431
26 | U12C C19G | 0.428
27 | U12C C19A | 0.314
28 | A11C U12A | 0.907
29 | A11C U12G | 0.971
30 | A11C U12C | 0.79
31 | U12C C20U | 0.695
32 | U12C C20A | 0.128
33 | A11G A35G | 0.826
34 | A11G A35U | 0.941
35 | A10U G29C | 0.617
36 | A10U G29A | 1.08
37 | A11C C19A | 0.136
38 | A11C C19G | 0.138
39 | A11U A34G | 1.07
40 | A11U A34U | 0.974
41 | A11U G47A | 0.937
42 | U12A G29U | 1.13
43 | U12A G29A | 1.11
44 | A10U A40G | 0.191
45 | A11U G44A | 0.977
46 | U12C C14U | 1.06
47 | A11C G16C | 0.187
48 | A10U A34G | 0.703

Row | Variant | self-cleavage
49 | A10U A34C | 0.279
50 | U12A U18C | 0.623
51 | U12A U18A | 0.643
52 | A11C C21A | 0.0812
53 | A11C C21U | 0.1
54 | A11C C21G | 0.118
55 | A11U C26U | 0.69
56 | A11G C19A | 0.221
57 | A11G C46U | 0.943
58 | U12C A30G | 0.712
59 | U12C A30U | 1.04
60 | U12C G24A | 0.0718
61 | U12C G45A | 0.788
62 | U12C U37C | 0.624
63 | A11U A30C | 0.862
64 | A10U G48U | 0.933
65 | A10U G48C | 1.09
66 | A11U C46G | 0.978
67 | A11U C46U | 0.914
68 | U12C C46G | 0.705
69 | U12C C46A | 0.903
70 | A11C C14G | 0.164
71 | U12A C46U | 0.977
72 | A11U A35C | 0.997

Row | Variant | self-cleavage
73 | A11U A35U | 1.12
74 | U12A G38U | 1.01
75 | U12C C21A | 0.124
76 | A11C G41A | 0.336
77 | U12C G16C | 0.482
78 | A11U C20A | 0.178
79 | A11G G13U | 0.705
80 | U12C G44C | 0.932
81 | A11G A34U | 0.913
82 | A11G A34C | 0.353
83 | U12A A23C | 0.394
84 | U12A A23G | 0.768
85 | U12A G13A | 0.89
86 | U12A G13C | 0.811
87 | A11U A23U | 0.765
88 | A11U A23C | 0.241
89 | A11U A32U | 1.1
90 | A11U A32G | 0.911
91 | A11U A33C | 0.909
92 | A11U A33G | 0.839
93 | A10U G43C | 0.2
94 | A10U G43U | 0.501
95 | A10U G43A | 0.373
96 | A10U C27A | 0.645

Row | Variant | self-cleavage
97 | A10U G42C | 0.543
98 | A10U G42A | 0.489
99 | A11U G36U | 0.849
100 | A11U G36C | 0.573
101 | A11C A35G | 0.574
102 | A11C A35U | 0.942
103 | A11C A35C | 0.886
104 | A11C U18G | 0.0822
105 | A11C U18A | 0.159
106 | A11C U18C | 0.154
107 | A11U G45A | 1.13
108 | A11U G29C | 1.02
109 | A11U G29U | 1.04
110 | A11G G48A | 0.884
111 | A11G G48C | 1.09
112 | A11G C15G | 0.0492
113 | A11G C15U | 0.912
114 | A11C G36C | 0.636
115 | A11G U12C | 1.13
116 | A11U C15A | 0.62
117 | A11U C15G | 0.0907
118 | A11G C26G | 0.234
119 | A11G C26U | 0.466
120 | U12A G45A | 1.09

Row | Variant | self-cleavage
121 | U12A G45C | 0.643
122 | A11G G45C | 0.343
123 | A11U G28A | 1.02
124 | A11U G28U | 0.968
125 | A11G C20G | 0.197
126 | A11G C20U | 0.797
127 | A11G C20A | 0.117
128 | A10U G28C | 0.768
129 | A10U G28A | 0.885
130 | A11U C21G | 0.0514
131 | A11U C21A | 0.114
132 | U12C U31A | 0.78
133 | U12C U31G | 0.954
134 | A11G A40G | 0.11
135 | A10U U31C | 0.919
136 | A10U U31A | 0.694
137 | A11G G41C | 0.313
138 | U12A G47C | 0.751
139 | A11U G43C | 0.234
140 | U12A G17C | 0.114
141 | A11U C25A | 0.139
142 | A11U C25U | 1.03
143 | U12A G42A | 0.463
144 | U12A G42U | 0.427

Row | Variant | self-cleavage
145 | U12A G42C | 0.601
146 | U12A G24U | 0.172
147 | U12A G24C | 0.097
148 | A10U U12G | 0.759
149 | A10U U12C | 0.931
150 | A11C A34C | 0.049
151 | A11C A34U | 0.785
152 | A11G U18A | 0.61
153 | A11G U18C | 0.382
154 | A11G G28U | 0.725
155 | A11G G28C | 0.801
156 | A11G G28A | 0.84
157 | A11U G42C | 0.623
158 | A11U G42A | 0.557
159 | A11U G42U | 0.33
160 | U12C G29C | 0.877
161 | U12C G29U | 0.746
162 | U12A G41U | 0.772
163 | A11C G28A | 0.656
164 | A11C G28U | 0.563
165 | U12C A23U | 0.554
166 | U12C A23C | 0.234
167 | A10U C19A | 0.331
